PMC4153629

Experiments:
[1] = molecular target: GH67 α-glucuronidase Agu67A from Caldicellulosiruptor lactoaceticus 6A (Caldicellulosiruptor lactoaceticus 6A); assay: SEC; Superdex 200 column (33 mL elution volume), 50 mM sodium citrate, 150 mM NaCl, pH 6.0, 0.5 mL/min; apparent Mw from a calibration curve of log (Mw) vs. elution volume; self-association (homodimer)
[2] = molecular target: GH family 10 endo-β-1,4-xylanase Xyn10A from Caldicellulosiruptor lactoaceticus 6A (Caldicellulosiruptor lactoaceticus 6A); assay: as above

| Substance | stoichiometry N [1] | stoichiometry N [2] |
| --- | --- | --- |
| GH67 α-glucuronidase Agu67A from Caldicellulosiruptor lactoaceticus 6A (enzyme) | 2 |  |
| GH family 10 endo-β-1,4-xylanase Xyn10A from Caldicellulosiruptor lactoaceticus 6A (enzyme) |  | 2 |
